Experimental data from patent publication US9993529B2, “Stable formulations of a hyaluronan-degrading enzyme” (Halozyme, Inc., priority 2011, dated 2018).
Where two headings read alike, the source gives them in different places.

How the values were obtained:
[1] = Differential scanning calorimetry, Tm of rHuPH20; assay type: physicochemical; settings: DSC, presence of […] m-cresol
[2] = Dynamic light scattering, particle size and apparent melting temperature of rHuPH20; assay type: physicochemical; design: unit not given here
rHuPH20 = target: T1, rHuPH20 (Homo sapiens, UniProt P38567); settings: for retained % of the original activity / rHuPH20 activity (initial 600 U/mL): 75 mM NaCl
T1 sequence (P38567 36-482): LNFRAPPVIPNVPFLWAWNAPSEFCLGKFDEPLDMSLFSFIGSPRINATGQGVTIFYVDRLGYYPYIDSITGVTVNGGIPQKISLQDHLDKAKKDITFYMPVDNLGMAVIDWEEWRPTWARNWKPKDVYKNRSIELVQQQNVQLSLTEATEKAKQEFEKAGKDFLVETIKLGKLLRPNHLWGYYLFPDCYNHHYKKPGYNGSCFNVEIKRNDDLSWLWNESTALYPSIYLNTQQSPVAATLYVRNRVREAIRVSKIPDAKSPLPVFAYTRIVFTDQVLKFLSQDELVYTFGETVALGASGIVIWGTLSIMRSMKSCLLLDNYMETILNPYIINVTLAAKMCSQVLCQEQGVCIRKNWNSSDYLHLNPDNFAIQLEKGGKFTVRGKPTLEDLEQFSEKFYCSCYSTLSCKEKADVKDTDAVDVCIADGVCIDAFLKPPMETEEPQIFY
Protocol: The activity of a hyaluronan degrading enzyme can be assessed using methods well known in the art. […] A Hyaluronidase Reference Standard (USP) or National Formulary (NF) Standard Hyaluronidase solution can be used in an assay to ascertain the activity, in units, of any hyaluronidase. In one example, activity is measured using a microturbidity assay. […] The turbidity of the resulting sample is measured at 640 nm after an additional development period.

[3] = 1 week 30° C., pH 7.1, 10 mg/mL HA

B1: rHuPH20: secreted soluble recombinant human PH20 hyaluronidase expressed in CHO cells (nucleic acid encoding amino acids 36-482 of SEQ ID NO:1) (protein, listed as Homo sapiens)
chain: T1 sequence (P38567 36-482)
modifications: precursor human PH20
With B1 the “reduction of Tm of rHuPH20” value [1] was “about 2 °C”, the “Average particle size (DLS)” value ([2]; 20 ° C.) was 9.48 and the “Average particle size (DLS)” value ([2]; 22 ° C.) was 9.19. The “Average particle size (DLS)” value ([2]; 24 ° C.) was 9.89, the “Average particle size (DLS)” value ([2]; 26 ° C.) was 9.96 and the “Average particle size (DLS)” value ([2]; 28 ° C.) was 9.27. The “Average particle size (DLS)” value ([2]; 30 ° C.) was 8.94, the “Average particle size (DLS)” value ([2]; 32 ° C.) was 8.96 and the “Average particle size (DLS)” value ([2]; 34 ° C.) was 9.42. The “Average particle size (DLS)” value ([2]; 36 ° C.) was 9.28, the “Average particle size (DLS)” value ([2]; 38 ° C.) was 8.91 and the “Average particle size (DLS)” value ([2]; 40 ° C.) was 9.39. For the same molecule, the “Average particle size (DLS)” value ([2]; 42 ° C.) was 9.72, the “Average particle size (DLS)” value ([2]; 44 ° C.) was 11.36 and the “Average particle size (DLS)” value ([2]; 46 ° C.) was 13.08. For the same molecule, the “Average particle size (DLS)” value ([2]; 48 ° C.) was 21.35, the “Average particle size (DLS)” value ([2]; 50 ° C.) was 22.74 and the “Average particle size (DLS)” value ([2]; 52 ° C.) was 28.50. For the same molecule, the “Average particle size (DLS)” value ([2]; 54 ° C.) was 32.95, the “Average particle size (DLS)” value ([2]; 56 ° C.) was 37.01 and the rHuPH20 enzymatic activity (rHuPH20; 1 mM methionine, 30° C., one month) was 525 U/mL. The rHuPH20 enzymatic activity (rHuPH20; 20 mM methionine, 30° C., one month) was 522 U/mL, the “retained % of the original activity” value (rHuPH20; 1 week 30° C., pH 7.1, 1 mg/mL HA) was 57% and the “% of the original rHuPH20 remained” value (rHuPH20; 1 week 30° C., pH 7.1, 5.5 mg/mL HA, 100 mM NaCl) was 68%. The “rHuPH20 activity (initial 600 U/mL)” value (rHuPH20; [3]) was 510 U/mL, the “retained % of the original activity” value (rHuPH20; [3]) was 85% and the rHuPH20 enzymatic activity (rHuPH20; 2-8° C., 5 Months, pH 7.0, 50 mM NaCl) was 494.4796. It also gave a rHuPH20 enzymatic activity (rHuPH20; 2-8° C., 5 Months, pH 7.0, 80 mM NaCl) of 575.3274, a rHuPH20 enzymatic activity (rHuPH20; 2-8° C., 5 Months, pH 7.0, 110 mM NaCl) of 615.3546 and a rHuPH20 enzymatic activity (rHuPH20; 2-8° C., 5 Months, pH 7.0, 140 mM NaCl) of 582.4274. The rHuPH20 enzymatic activity (rHuPH20; 2-8° C., 5 Months, pH 7.2, 50 mM NaCl) was 481.6035, the rHuPH20 enzymatic activity (rHuPH20; 2-8° C., 5 Months, pH 7.2, 80 mM NaCl) was 566.2521 and the rHuPH20 enzymatic activity (rHuPH20; 2-8° C., 5 Months, pH 7.2, 110 mM NaCl) was 593.2027. It also gave a rHuPH20 enzymatic activity (rHuPH20; 2-8° C., 5 Months, pH 7.2, 140 mM NaCl) of 585.9948, a rHuPH20 enzymatic activity (rHuPH20; 2-8° C., 5 Months, pH 7.4, 50 mM NaCl) of 526.6628 and a rHuPH20 enzymatic activity (rHuPH20; 2-8° C., 5 Months, pH 7.4, 80 mM NaCl) of 564.7769. The rHuPH20 enzymatic activity (rHuPH20; 2-8° C., 5 Months, pH 7.4, 110 mM NaCl) was 618.3856, the rHuPH20 enzymatic activity (rHuPH20; 2-8° C., 5 Months, pH 7.4, 140 mM NaCl) was 585.9813 and the rHuPH20 enzymatic activity (rHuPH20; 2-8° C., 5 Months, pH 7.6, 80 mM NaCl) was 546.4209. The rHuPH20 enzymatic activity (rHuPH20; 2-8° C., 5 Months, pH 7.6, 110 mM NaCl) was 581.6326, the rHuPH20 enzymatic activity (rHuPH20; 2-8° C., 5 Months, pH 7.6, 140 mM NaCl) was 594.6197 and the rHuPH20 enzymatic activity (rHuPH20; 2-8° C., 9 Months, pH 7.0, 50 mM NaCl) was 436.5115. The rHuPH20 enzymatic activity (rHuPH20; 2-8° C., 9 Months, pH 7.0, 80 mM NaCl) was 513.9692, the rHuPH20 enzymatic activity (rHuPH20; 2-8° C., 9 Months, pH 7.0, 110 mM NaCl) was 551.0218 and the rHuPH20 enzymatic activity (rHuPH20; 2-8° C., 9 Months, pH 7.0, 140 mM NaCl) was 554.6513. For the same molecule, the rHuPH20 enzymatic activity (rHuPH20; 2-8° C., 9 Months, pH 7.2, 50 mM NaCl) was 451.8324, the rHuPH20 enzymatic activity (rHuPH20; 2-8° C., 9 Months, pH 7.2, 80 mM NaCl) was 518.0740 and the rHuPH20 enzymatic activity (rHuPH20; 2-8° C., 9 Months, pH 7.2, 110 mM NaCl) was 553.1847. It also gave a rHuPH20 enzymatic activity (rHuPH20; 2-8° C., 9 Months, pH 7.2, 140 mM NaCl) of 536.7846, a rHuPH20 enzymatic activity (rHuPH20; 2-8° C., 9 Months, pH 7.4, 50 mM NaCl) of 466.1871 and a rHuPH20 enzymatic activity (rHuPH20; 2-8° C., 9 Months, pH 7.4, 80 mM NaCl) of 509.9032. For the same molecule, the rHuPH20 enzymatic activity (rHuPH20; 2-8° C., 9 Months, pH 7.4, 110 mM NaCl) was 560.4847, the rHuPH20 enzymatic activity (rHuPH20; 2-8° C., 9 Months, pH 7.4, 140 mM NaCl) was 542.4534 and the rHuPH20 enzymatic activity (rHuPH20; 2-8° C., 9 Months, pH 7.6, 50 mM NaCl) was 464.8964. It also gave a rHuPH20 enzymatic activity (rHuPH20; 2-8° C., 9 Months, pH 7.6, 80 mM NaCl) of 515.3382, a rHuPH20 enzymatic activity (rHuPH20; 2-8° C., 9 Months, pH 7.6, 110 mM NaCl) of 531.9202 and a rHuPH20 enzymatic activity (rHuPH20; 2-8° C., 9 Months, pH 7.6, 140 mM NaCl) of 523.5385. The rHuPH20 enzymatic activity (rHuPH20; insulin/rHuPH20 follow up study, starting) was 650 U/mL, the “rHuPH20 activity (initial 600 U/mL)” value (rHuPH20; rHuPH20/insulin, 1 week 30° C., pH 7.1, 1 mg/mL HA) was 341 U/mL and the rHuPH20 enzymatic activity (rHuPH20; regular insulin/rHuPH20, 2-8° C., 5 Months, pH 7.6, 50 mM NaCl) was 508.0571.
